# Data from publication PMC10157535, “Structural basis of phosphorylation-induced activation of the response regulator VbrR”.
# T1: VbrR (state not stated) (Vibrio parahaemolyticus, UniProt A0A0L8SKF9 1-220)
# T1 sequence: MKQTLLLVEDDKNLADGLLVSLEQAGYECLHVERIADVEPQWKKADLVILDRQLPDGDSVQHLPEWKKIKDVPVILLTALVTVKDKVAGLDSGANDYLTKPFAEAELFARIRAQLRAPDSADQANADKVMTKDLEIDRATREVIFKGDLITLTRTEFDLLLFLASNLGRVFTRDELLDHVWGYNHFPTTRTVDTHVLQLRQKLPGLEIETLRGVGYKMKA
# T2: VbrR (monomer fraction) (Vibrio parahaemolyticus, UniProt A0A0L8SKF9 1-220)
# T2 sequence: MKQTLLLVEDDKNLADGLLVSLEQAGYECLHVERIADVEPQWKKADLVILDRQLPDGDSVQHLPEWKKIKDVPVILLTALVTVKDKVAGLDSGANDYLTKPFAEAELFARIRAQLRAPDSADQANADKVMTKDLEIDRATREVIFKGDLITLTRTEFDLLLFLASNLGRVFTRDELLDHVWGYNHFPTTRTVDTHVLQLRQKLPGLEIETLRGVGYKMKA
# T3: VbrR DBD (monomer fraction) (Vibrio parahaemolyticus, UniProt A0A0L8SKF9 125-220)
# T3 sequence: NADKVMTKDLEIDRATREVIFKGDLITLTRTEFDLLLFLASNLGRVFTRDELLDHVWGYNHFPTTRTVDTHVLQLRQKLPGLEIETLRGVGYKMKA
# Legend:
# [1] = molecular target: VbrR DNA-binding domain (DBD, 125-220) (Vibrio parahaemolyticus); assay: SEC-MALS; SEC-MALLS, Superdex-200 10/30, buffer A (20 mM Tris-HCl pH 8.0, 100 mM NaCl), 100 uL of ~10 mg/mL protein injected, 0.5 mL/min; no BeF3-
# [2] = molecular target: VbrR receiver domain (RD, 1-117) (Vibrio parahaemolyticus); assay: SEC-MALS; SEC-MALLS, Superdex-200 10/30, buffer A supplemented with 5.3 mM BeSO4, 35 mM NaF and 7 mM MgCl2 (BeF3-), 100 uL of ~10 mg/mL protein injected
# [3] = molecular target: full-length VbrR (response regulator VbrR from Vibrio parahaemolyticus) (Vibrio parahaemolyticus); assay: SEC-MALS; SEC-MALLS, Superdex-200 10/30, buffer A (20 mM Tris-HCl pH 8.0, 100 mM NaCl), 100 uL of ~10 mg/mL protein injected, 0.5 mL/min; no BeF3-
# VbrR (state not stated) [4] = molecular target: T1, VbrR (state not stated); assay: BLI; 10-160 uM DNA; text order of the two values (0.69, 0.77) matches 30 bp then 49 bp; BLI (Octet RED, biotinylated protein on streptavidin sensors), PBS: 10 mM phosphate pH 7.4, 2.7 mM KCl, 137 mM NaCl, 25 C; 1:1 fit; conditions: protein: recombinant, tags: N-terminal 6xHis, chain copies: 2
# VbrR (monomer fraction) [5] = molecular target: T2, VbrR (monomer fraction); assay: crystal structure; 4.6 A; VbrR dimer on DNA; BLI (Octet RED, biotinylated protein on streptavidin sensors), PBS: 10 mM phosphate pH 7.4, 2.7 mM KCl, 137 mM NaCl, 25 C; 1:1 fit; conditions: protein: recombinant; tags: N-terminal 6xHis; biotinylated for BLI; chain copies: 2; blunt
# VbrR (monomer fraction) [6] = molecular target: T2, VbrR (monomer fraction); assay: BLI; VbrR monomer; BLI (Octet RED, biotinylated protein on streptavidin sensors), PBS: 10 mM phosphate pH 7.4, 2.7 mM KCl, 137 mM NaCl, 25 C; 1:1 fit; conditions: protein: recombinant; tags: N-terminal 6xHis; biotinylated for BLI
# [7] = molecular target: T3, VbrR DBD (monomer fraction); assay: BLI; DBD monomer; BLI (Octet RED, biotinylated protein on streptavidin sensors), PBS: 10 mM phosphate pH 7.4, 2.7 mM KCl, 137 mM NaCl, 25 C; 1:1 fit; conditions: protein: recombinant, tags: N-terminal 6xHis
# VbrR (state not stated) [8] = molecular target: T1, VbrR (state not stated); assay: BLI; 2.5-80 uM DNA; oligomeric state not stated; BLI (Octet RED, biotinylated protein on streptavidin sensors), PBS: 10 mM phosphate pH 7.4, 2.7 mM KCl, 137 mM NaCl, 25 C; 1:1 fit; conditions: protein: recombinant, tags: N-terminal 6xHis, chain copies: 2
molecule,measurement,setting,value
"VbrR DNA-binding domain (DBD, 125-220) (domain or fragment)",stoichiometry N,[1],2
"VbrR receiver domain (RD, 1-117) (domain or fragment)",stoichiometry N,[2],2
full-length VbrR (response regulator VbrR from Vibrio parahaemolyticus) (natural protein),stoichiometry N,[3],2
exsC promoter 30 bp (dsDNA) DNA 1: AACACAATTCTAATTCTTCATCGCTTGTCG DNA 2: CGACAAGCGATGAAGAATTAGAATTGTGTT,Kd,VbrR (state not stated) [4],690 nM
exsC promoter 26 bp (dsDNA) DNA 1: CACAATTCTAATTCTTCATCGCTTGT DNA 2: ACAAGCGATGAAGAATTAGAATTGTG,binding result,VbrR (monomer fraction) [5],binds
exsC promoter 49 bp (dsDNA) DNA 1: AACACAATTCTAATTCTTCATCGCTTGTCGATATAAACCAAAATCCCAC DNA 2: GTGGGATTTTGGTTTATATCGACAAGCGATGAAGAATTAGAATTGTGTT,Kd,VbrR (monomer fraction) [6],270 nM
same,Kd,[7],140 nM
same,Kd,VbrR (state not stated) [8],770 nM
